According to the Human Domainome abundance scans (Beltran et al. 2025):
± gives the uncertainty stated by the source.

B1: Double-stranded RNA-specific adenosine deaminase, residues 296 to 358; numbered along this chain, P55265 (parent)
chain: MAEIKEKICDYLFNVSDSSALNLAKNIGLTKARDINAVLIDMERQGDVYRQGTTPPIWHLTDK

Variants of: B1
Assay: abundance fitness (aPCA) (normalised: wild type 0, dead -1); higher = more abundant; growth selection in yeast, the domain comes from the species named
Settings: Homo sapiens

Variant | abundance fitness
MAEIKEKICDYLFNVSDSSALNLAANIGLTKARDINAVLIDMERQGDVYRQGTTPPIWHLTDK | -0.213 ± 0.057
MAEIKEKICDYLFNVSDSSALNLACNIGLTKARDINAVLIDMERQGDVYRQGTTPPIWHLTDK | -0.36 ± 0.1
MAEIKEKICDYLFNVSDSSALNLADNIGLTKARDINAVLIDMERQGDVYRQGTTPPIWHLTDK | -0.141 ± 0.1
MAEIKEKICDYLFNVSDSSALNLAENIGLTKARDINAVLIDMERQGDVYRQGTTPPIWHLTDK | -0.124 ± 0.083
MAEIKEKICDYLFNVSDSSALNLAHNIGLTKARDINAVLIDMERQGDVYRQGTTPPIWHLTDK | -0.083 ± 0.082
MAEIKEKICDYLFNVSDSSALNLAINIGLTKARDINAVLIDMERQGDVYRQGTTPPIWHLTDK | -0.578 ± 0.11
MAEIKEKICDYLFNVSDSSALNLALNIGLTKARDINAVLIDMERQGDVYRQGTTPPIWHLTDK | -0.404 ± 0.056
MAEIKEKICDYLFNVSDSSALNLAMNIGLTKARDINAVLIDMERQGDVYRQGTTPPIWHLTDK | -0.282 ± 0.072
MAEIKEKICDYLFNVSDSSALNLANNIGLTKARDINAVLIDMERQGDVYRQGTTPPIWHLTDK | -0.234 ± 0.07
MAEIKEKICDYLFNVSDSSALNLAPNIGLTKARDINAVLIDMERQGDVYRQGTTPPIWHLTDK | -0.928 ± 0.12
MAEIKEKICDYLFNVSDSSALNLAQNIGLTKARDINAVLIDMERQGDVYRQGTTPPIWHLTDK | -0.024 ± 0.058
MAEIKEKICDYLFNVSDSSALNLASNIGLTKARDINAVLIDMERQGDVYRQGTTPPIWHLTDK | -0.542 ± 0.06
MAEIKEKICDYLFNVSDSSALNLATNIGLTKARDINAVLIDMERQGDVYRQGTTPPIWHLTDK | -0.32 ± 0.058
MAEIKEKICDYLFNVSDSSALNLAWNIGLTKARDINAVLIDMERQGDVYRQGTTPPIWHLTDK | -0.82 ± 0.092
MAEIKEKICDYLFNVSDSSALNLAYNIGLTKARDINAVLIDMERQGDVYRQGTTPPIWHLTDK | -0.626 ± 0.12
MAEIKEKICDYLFNVSDSSALNLAKAIGLTKARDINAVLIDMERQGDVYRQGTTPPIWHLTDK | 0.189 ± 0.047
MAEIKEKICDYLFNVSDSSALNLAKCIGLTKARDINAVLIDMERQGDVYRQGTTPPIWHLTDK | -0.338 ± 0.082
MAEIKEKICDYLFNVSDSSALNLAKDIGLTKARDINAVLIDMERQGDVYRQGTTPPIWHLTDK | -0.539 ± 0.081
MAEIKEKICDYLFNVSDSSALNLAKEIGLTKARDINAVLIDMERQGDVYRQGTTPPIWHLTDK | 0.075 ± 0.089
MAEIKEKICDYLFNVSDSSALNLAKFIGLTKARDINAVLIDMERQGDVYRQGTTPPIWHLTDK | -0.328 ± 0.076
MAEIKEKICDYLFNVSDSSALNLAKGIGLTKARDINAVLIDMERQGDVYRQGTTPPIWHLTDK | -0.001 ± 0.05
MAEIKEKICDYLFNVSDSSALNLAKHIGLTKARDINAVLIDMERQGDVYRQGTTPPIWHLTDK | 0.215 ± 0.057

Variant | abundance fitness
MAEIKEKICDYLFNVSDSSALNLAKIIGLTKARDINAVLIDMERQGDVYRQGTTPPIWHLTDK | -0.271 ± 0.063
MAEIKEKICDYLFNVSDSSALNLAKKIGLTKARDINAVLIDMERQGDVYRQGTTPPIWHLTDK | -0.057 ± 0.068
MAEIKEKICDYLFNVSDSSALNLAKLIGLTKARDINAVLIDMERQGDVYRQGTTPPIWHLTDK | -0.429 ± 0.059
MAEIKEKICDYLFNVSDSSALNLAKMIGLTKARDINAVLIDMERQGDVYRQGTTPPIWHLTDK | -0.328 ± 0.07
MAEIKEKICDYLFNVSDSSALNLAKPIGLTKARDINAVLIDMERQGDVYRQGTTPPIWHLTDK | -0.629 ± 0.085
MAEIKEKICDYLFNVSDSSALNLAKQIGLTKARDINAVLIDMERQGDVYRQGTTPPIWHLTDK | 0.009 ± 0.087
MAEIKEKICDYLFNVSDSSALNLAKRIGLTKARDINAVLIDMERQGDVYRQGTTPPIWHLTDK | -0.202 ± 0.047
MAEIKEKICDYLFNVSDSSALNLAKSIGLTKARDINAVLIDMERQGDVYRQGTTPPIWHLTDK | -0.103 ± 0.048
MAEIKEKICDYLFNVSDSSALNLAKTIGLTKARDINAVLIDMERQGDVYRQGTTPPIWHLTDK | -0.403 ± 0.063
MAEIKEKICDYLFNVSDSSALNLAKVIGLTKARDINAVLIDMERQGDVYRQGTTPPIWHLTDK | 0.044 ± 0.047
MAEIKEKICDYLFNVSDSSALNLAKWIGLTKARDINAVLIDMERQGDVYRQGTTPPIWHLTDK | -0.327 ± 0.065
MAEIKEKICDYLFNVSDSSALNLAKYIGLTKARDINAVLIDMERQGDVYRQGTTPPIWHLTDK | -0.114 ± 0.077
MAEIKEKICDYLFNVSDSSALNLAKNAGLTKARDINAVLIDMERQGDVYRQGTTPPIWHLTDK | -0.471 ± 0.053
MAEIKEKICDYLFNVSDSSALNLAKNDGLTKARDINAVLIDMERQGDVYRQGTTPPIWHLTDK | -0.277 ± 0.072
MAEIKEKICDYLFNVSDSSALNLAKNEGLTKARDINAVLIDMERQGDVYRQGTTPPIWHLTDK | -0.274 ± 0.078
MAEIKEKICDYLFNVSDSSALNLAKNGGLTKARDINAVLIDMERQGDVYRQGTTPPIWHLTDK | -0.611 ± 0.07
MAEIKEKICDYLFNVSDSSALNLAKNHGLTKARDINAVLIDMERQGDVYRQGTTPPIWHLTDK | -0.548 ± 0.11
MAEIKEKICDYLFNVSDSSALNLAKNKGLTKARDINAVLIDMERQGDVYRQGTTPPIWHLTDK | -0.324 ± 0.084
MAEIKEKICDYLFNVSDSSALNLAKNLGLTKARDINAVLIDMERQGDVYRQGTTPPIWHLTDK | -0.01 ± 0.046
MAEIKEKICDYLFNVSDSSALNLAKNMGLTKARDINAVLIDMERQGDVYRQGTTPPIWHLTDK | -0.359 ± 0.06
MAEIKEKICDYLFNVSDSSALNLAKNNGLTKARDINAVLIDMERQGDVYRQGTTPPIWHLTDK | -0.538 ± 0.11
MAEIKEKICDYLFNVSDSSALNLAKNPGLTKARDINAVLIDMERQGDVYRQGTTPPIWHLTDK | -0.452 ± 0.061

Variant | abundance fitness
MAEIKEKICDYLFNVSDSSALNLAKNQGLTKARDINAVLIDMERQGDVYRQGTTPPIWHLTDK | -0.507 ± 0.072
MAEIKEKICDYLFNVSDSSALNLAKNRGLTKARDINAVLIDMERQGDVYRQGTTPPIWHLTDK | -0.584 ± 0.053
MAEIKEKICDYLFNVSDSSALNLAKNSGLTKARDINAVLIDMERQGDVYRQGTTPPIWHLTDK | -0.435 ± 0.048
MAEIKEKICDYLFNVSDSSALNLAKNVGLTKARDINAVLIDMERQGDVYRQGTTPPIWHLTDK | -0.162 ± 0.059
MAEIKEKICDYLFNVSDSSALNLAKNWGLTKARDINAVLIDMERQGDVYRQGTTPPIWHLTDK | -0.818 ± 0.13
MAEIKEKICDYLFNVSDSSALNLAKNYGLTKARDINAVLIDMERQGDVYRQGTTPPIWHLTDK | -0.944 ± 0.14
MAEIKEKICDYLFNVSDSSALNLAKNIALTKARDINAVLIDMERQGDVYRQGTTPPIWHLTDK | -0.453 ± 0.056
MAEIKEKICDYLFNVSDSSALNLAKNIDLTKARDINAVLIDMERQGDVYRQGTTPPIWHLTDK | -0.186 ± 0.058
MAEIKEKICDYLFNVSDSSALNLAKNIELTKARDINAVLIDMERQGDVYRQGTTPPIWHLTDK | -0.15 ± 0.065
MAEIKEKICDYLFNVSDSSALNLAKNIFLTKARDINAVLIDMERQGDVYRQGTTPPIWHLTDK | -0.796 ± 0.16
MAEIKEKICDYLFNVSDSSALNLAKNIHLTKARDINAVLIDMERQGDVYRQGTTPPIWHLTDK | -0.508 ± 0.097
MAEIKEKICDYLFNVSDSSALNLAKNIILTKARDINAVLIDMERQGDVYRQGTTPPIWHLTDK | -1.01 ± 0.15
MAEIKEKICDYLFNVSDSSALNLAKNIKLTKARDINAVLIDMERQGDVYRQGTTPPIWHLTDK | -0.229 ± 0.081
MAEIKEKICDYLFNVSDSSALNLAKNILLTKARDINAVLIDMERQGDVYRQGTTPPIWHLTDK | -0.97 ± 0.093
MAEIKEKICDYLFNVSDSSALNLAKNIMLTKARDINAVLIDMERQGDVYRQGTTPPIWHLTDK | -0.805 ± 0.11
MAEIKEKICDYLFNVSDSSALNLAKNINLTKARDINAVLIDMERQGDVYRQGTTPPIWHLTDK | -0.43 ± 0.11
MAEIKEKICDYLFNVSDSSALNLAKNIPLTKARDINAVLIDMERQGDVYRQGTTPPIWHLTDK | -0.234 ± 0.078
MAEIKEKICDYLFNVSDSSALNLAKNIQLTKARDINAVLIDMERQGDVYRQGTTPPIWHLTDK | -0.606 ± 0.14
MAEIKEKICDYLFNVSDSSALNLAKNIRLTKARDINAVLIDMERQGDVYRQGTTPPIWHLTDK | -0.802 ± 0.072
MAEIKEKICDYLFNVSDSSALNLAKNISLTKARDINAVLIDMERQGDVYRQGTTPPIWHLTDK | -0.474 ± 0.055
MAEIKEKICDYLFNVSDSSALNLAKNITLTKARDINAVLIDMERQGDVYRQGTTPPIWHLTDK | -0.655 ± 0.076
MAEIKEKICDYLFNVSDSSALNLAKNIVLTKARDINAVLIDMERQGDVYRQGTTPPIWHLTDK | -0.713 ± 0.069

Variant | abundance fitness
MAEIKEKICDYLFNVSDSSALNLAKNIWLTKARDINAVLIDMERQGDVYRQGTTPPIWHLTDK | -0.886 ± 0.11
MAEIKEKICDYLFNVSDSSALNLAKNIYLTKARDINAVLIDMERQGDVYRQGTTPPIWHLTDK | -0.982 ± 0.13
MAEIKEKICDYLFNVSDSSALNLAKNIGATKARDINAVLIDMERQGDVYRQGTTPPIWHLTDK | -0.103 ± 0.1
MAEIKEKICDYLFNVSDSSALNLAKNIGCTKARDINAVLIDMERQGDVYRQGTTPPIWHLTDK | -0.125 ± 0.049
MAEIKEKICDYLFNVSDSSALNLAKNIGDTKARDINAVLIDMERQGDVYRQGTTPPIWHLTDK | 0.035 ± 0.058
MAEIKEKICDYLFNVSDSSALNLAKNIGETKARDINAVLIDMERQGDVYRQGTTPPIWHLTDK | 0.045 ± 0.11
MAEIKEKICDYLFNVSDSSALNLAKNIGFTKARDINAVLIDMERQGDVYRQGTTPPIWHLTDK | -0.107 ± 0.051
MAEIKEKICDYLFNVSDSSALNLAKNIGGTKARDINAVLIDMERQGDVYRQGTTPPIWHLTDK | 0.006 ± 0.058
MAEIKEKICDYLFNVSDSSALNLAKNIGHTKARDINAVLIDMERQGDVYRQGTTPPIWHLTDK | -0.325 ± 0.06
MAEIKEKICDYLFNVSDSSALNLAKNIGITKARDINAVLIDMERQGDVYRQGTTPPIWHLTDK | -0.025 ± 0.04
MAEIKEKICDYLFNVSDSSALNLAKNIGKTKARDINAVLIDMERQGDVYRQGTTPPIWHLTDK | -0.54 ± 0.29
MAEIKEKICDYLFNVSDSSALNLAKNIGMTKARDINAVLIDMERQGDVYRQGTTPPIWHLTDK | 0.154 ± 0.096
MAEIKEKICDYLFNVSDSSALNLAKNIGNTKARDINAVLIDMERQGDVYRQGTTPPIWHLTDK | 0.041 ± 0.054
MAEIKEKICDYLFNVSDSSALNLAKNIGPTKARDINAVLIDMERQGDVYRQGTTPPIWHLTDK | -0.336 ± 0.1
MAEIKEKICDYLFNVSDSSALNLAKNIGQTKARDINAVLIDMERQGDVYRQGTTPPIWHLTDK | -0.026 ± 0.092
MAEIKEKICDYLFNVSDSSALNLAKNIGRTKARDINAVLIDMERQGDVYRQGTTPPIWHLTDK | -0.356 ± 0.076
MAEIKEKICDYLFNVSDSSALNLAKNIGSTKARDINAVLIDMERQGDVYRQGTTPPIWHLTDK | -0.17 ± 0.045
MAEIKEKICDYLFNVSDSSALNLAKNIGTTKARDINAVLIDMERQGDVYRQGTTPPIWHLTDK | -0.167 ± 0.062
MAEIKEKICDYLFNVSDSSALNLAKNIGVTKARDINAVLIDMERQGDVYRQGTTPPIWHLTDK | -0.1 ± 0.054
